Reference: patent US20220332804A1 (CSL INNOVATION, published 2022)
Numbering of substitutions follows the chain as printed.

Columns and labels:
Experiment in all cases: SPR, antibody captured, C2 as analyte;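 further: biacore at 37 °C, anti-C2 mAbs held by immobilised goat anti-human IgG, C2 alanine or serine mutants injected, double-referenced sensorgrams fitted to a 1:1 kinetic or steady-state model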
[1] = target: T1, human C2 L279A (human, UniProt P06681 21-752)
T1 sequence: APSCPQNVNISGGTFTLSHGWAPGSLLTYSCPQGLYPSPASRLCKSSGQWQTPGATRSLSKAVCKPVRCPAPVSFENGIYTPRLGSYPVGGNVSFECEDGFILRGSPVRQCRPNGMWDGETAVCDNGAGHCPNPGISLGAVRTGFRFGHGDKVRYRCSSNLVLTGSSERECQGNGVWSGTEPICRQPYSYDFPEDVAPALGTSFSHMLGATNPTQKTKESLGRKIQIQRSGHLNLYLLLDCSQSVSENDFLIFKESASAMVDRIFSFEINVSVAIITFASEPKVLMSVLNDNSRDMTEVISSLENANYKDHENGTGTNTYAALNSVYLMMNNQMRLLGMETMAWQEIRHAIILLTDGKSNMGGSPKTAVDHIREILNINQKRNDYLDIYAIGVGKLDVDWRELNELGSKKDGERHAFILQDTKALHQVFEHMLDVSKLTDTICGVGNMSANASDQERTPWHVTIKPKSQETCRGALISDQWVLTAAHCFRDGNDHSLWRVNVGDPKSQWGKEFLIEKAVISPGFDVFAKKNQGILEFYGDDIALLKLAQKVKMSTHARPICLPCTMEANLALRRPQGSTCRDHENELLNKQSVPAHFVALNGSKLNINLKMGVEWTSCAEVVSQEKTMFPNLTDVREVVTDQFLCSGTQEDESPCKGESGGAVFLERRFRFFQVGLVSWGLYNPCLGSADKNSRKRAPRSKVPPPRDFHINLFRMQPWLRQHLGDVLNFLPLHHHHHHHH

[2] = target: T2, human C2 D417A (human, UniProt P06681 21-752)
T2 sequence: T1 sequence with A259L, D397A

[3] = target: T3, human C2 W420A (human, UniProt P06681 21-752)
T3 sequence: T1 sequence with A259L, W400A

[4] = target: T4, human C2 I320A (human, UniProt P06681 21-752)
T4 sequence: T1 sequence with A259L, I300A

B1: RF16-242 (antibody, human IgG4 S228P, lambda, V domains shown)
VH: EVQLLQSGAEVKKPGESLKISCKGSGYSFTSYWIGWVRQMPGKGLEWMGIIYPGDSDTRYSPSFQGQVTISADKSISTAYLQWSSLKASDTAMYYCARRGHYGDYFDYWGQGTLVTVSS
VL: SYELTQPPSVSVSPGQTARITCSGDALPKKYAYWYHQKSGQAPVLVIYEDRRRPSEIPERFSGSSSGTMATLTITGAQVEDEGVYFCYSRDRAGNQRVFGGGTQLTVLG
notes: pH-dependent anti-C2 antibody from a phage display library
Question: How did the Kd [1] turn out when B1 was run?
Answer: Its Kd is 0.0492 µM.

Question: And the Kd [2]?
Answer: Its Kd is 0.023 µM.

Question: And the Kd [3]?
Answer: The Kd was 0.0132 µM.

Question: What about the Kd [4] of the same binder?
Answer: The Kd was 0.0735 µM.
